# Patent US20210292396A1
# Several values for one entry are separate records, joined by “and”; a condition that tells them apart may be missing. Equal entries are not always repeated.
# Molecular target: gp120 (isolate: 92BR020) (HIV)
row,Substance,EC50 (read off the curve)
1,2G12 (antibody),0.07 µg/mL
2,PGT128 (antibody),0.05 µg/mL
3,PGT135 (antibody),0.05 µg/mL and 0.1 µg/mL
4,VRC01 (antibody),0.07 µg/mL
